# Data published in patent US9803013B2, “Biological materials and uses thereof” (BioInvent International AB, priority 2005, dated 2017).
# Assays:
# Ramos cells = test: Flow-cytometric IgG binding, Ramos cells mixed with peripheral blood leukocytes; parameters: species or system human
# Description: (§1) Washing was repeated twice.
# monocyte cells = test: as above; parameters: species or system human
# Description: as §1
# [1] = system: other monitored peripheral blood leukocyte subsets; test: as above; parameters: species or system human
# Description: as §1
# [2] = system: peripheral blood B lymphocytes; test: as above; parameters: species or system human
# Description: as §1
# ICAM-1 = ICAM-1 (Homo sapiens, UniProt P05362); test: Binding to recombinant ICAM-1 (ELISA)
# Sequence of ICAM-1 (P05362 28-532): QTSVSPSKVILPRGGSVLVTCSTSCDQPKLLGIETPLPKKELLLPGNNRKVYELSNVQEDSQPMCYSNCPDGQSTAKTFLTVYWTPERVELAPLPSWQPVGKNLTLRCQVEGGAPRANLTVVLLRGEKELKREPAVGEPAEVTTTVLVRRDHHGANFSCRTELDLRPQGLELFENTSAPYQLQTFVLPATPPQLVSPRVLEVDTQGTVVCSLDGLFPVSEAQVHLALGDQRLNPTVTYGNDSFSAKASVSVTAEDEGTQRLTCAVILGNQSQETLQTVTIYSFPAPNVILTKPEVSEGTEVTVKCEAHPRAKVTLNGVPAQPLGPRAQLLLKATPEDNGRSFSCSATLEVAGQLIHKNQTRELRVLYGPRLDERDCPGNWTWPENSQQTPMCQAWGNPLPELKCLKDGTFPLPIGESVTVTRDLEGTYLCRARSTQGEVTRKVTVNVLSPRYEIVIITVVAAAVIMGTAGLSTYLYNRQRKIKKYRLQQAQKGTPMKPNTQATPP
# Procedure: FIG. 12C BI-505 binds specifically to ICAM-1. (a) Pre-incubation with recombinant ICAM-1, but not VCAM, blocks BI-505 binding to targeted tumor B cells.
# (FIG. 21A) BI-505 IgG1, IgG4 and IgG1 N297Q antibodies were analyzed for binding to recombinant ICAM-1 by ELISA.
# RPMI-8226 myeloma cells = test: Advanced disseminated MM model, i.v. grafted RPMI-8226 in SCID mice; type: in vivo, mouse; details: 2 mg/kg from five days after i.v. grafting; compared to bortezomib, lenalidomide, melphalan or dexamethasone
# Description: To assess the therapeutic potential of BI-505 for treatment of MM, the anti-myeloma effects of BI-505 were compared to current gold-standard treatment in disseminated experimental models of MM sharing characteristics with human disease. These models resemble the manifestation and progression of human MM disease in many respects, including tumor dissemination and establishment in bone marrow, and the appearance of osteolytic bone-lesions and hypercalcemia (Mitsiades et al., 2003; Yaccoby et al., 1998). Firstly, the anti-myeloma activity of BI-505 was compared with currently used treatments in an advanced disseminated MM model comprising RPMI-8226 myeloma cells. In this model, therapeutic treatment with 2 mg/kg BI-505 was started five days after intravenous grafting of MM cells to allow for homing and establishment of MM cells in bone marrow.
# All studies were conducted in accordance with guidelines of the Lund University Hospital, Sweden or University of Utah, Salt Lake City, USA following approval from the local ethical committee for animal care and use. […] The role of macrophages and NK cells for BI-505 in vivo antitumor activity was assessed using anti-asialo antibody treatment, clodronate liposome treatment or NK-cell deficient mice. […]
# mouse FcγRIV = biological target: T1, mouse FcγRIV (Mus musculus, UniProt A0A0B4J1G0); test: BiaCore analysis of BI-505 Fc-variant binding to FcγR
# T1 construct: made in house; host or cells: HEK293E cells (transient)
# T1 sequence (A0A0B4J1G0 21-249): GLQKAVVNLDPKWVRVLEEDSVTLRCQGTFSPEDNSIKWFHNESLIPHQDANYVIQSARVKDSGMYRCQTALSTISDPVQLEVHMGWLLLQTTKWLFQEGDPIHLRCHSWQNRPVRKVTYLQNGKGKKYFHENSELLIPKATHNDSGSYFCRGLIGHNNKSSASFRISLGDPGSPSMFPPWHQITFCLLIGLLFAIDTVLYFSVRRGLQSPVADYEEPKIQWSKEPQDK
# Procedure: (FIG. 20B) BiaCore analysis of BI-505 Fc-variant antibodies binding to mouse FcγRIV.
# His-tagged human FcγRIIIa and mouse FcγRIV were transiently expressed in HEK293E cells, purified using Ni-NTA chromatography, and characterized by SDS-PAGE and/or Biacore. Surface plasmon resonance (SPR) measurements were performed using a Biacore 3000 instrument. Goat F(ab)′2 α-human-F(ab)′2 fragments (Jackson Laboratories) were immobilized with a CM-5 chip using a standard amine coupling protocol. BI-505 (IgG1) and IgG4 or IgG1 297Q variants of BI-505 were diluted to 15 and 60 μg/mL respectively and added to the surface at 10 μL/min for 3 min. His-tagged human FcγRIIIa or mouse FcγRIV was pre-incubated with an α-HIS antibody (R&D Systems) at a 2:1 molar ratio before addition to the chip surface, 30 μL/min, for 1 min. After each cycle the surface was regenerated twice with glycine buffer pH 1.7.
# [3] = Limited safety studies in rat, rabbit and monkey; type: in vivo
molecule,measurement,setting,value
"B11: fully human IgG1 antibody specific for ICAM-1; VH and VL sequences of FIG. 10 (SEQ ID NOs. 6 and 8) (antibody, listed as Homo sapiens, V domains shown) VH: EVQLLESGGGLVQPGGSLRLSCAASGFTFSNAWMSWVRQAPGKGLEWVAFIWYDGSNKYYADSVKGRFTISRDNSKNTLYLQMNSLRAEDTAVYYCARYSGWYFDYWGQGTLVTVSS VL: QSVLTQPPSASGTPGQRVTISCTGSSSNIGAGYDVHWYQQLPGTAPKLLIYDNNNRPSGVPDRFSGSKSGTSASLAISGLRSEDEADYYCQSYDSSLSAWLFGGGTKLTVLG",MFI,Ramos cells,654
same,concentration at which binding peaked,Ramos cells,0.1 µg/mL
same,MFI,monocyte cells,176
same,binding,[1],negative
same,MFI,[2],78
same,binding to recombinant protein,ICAM-1,binds dose-dependently
same,survival and disease onset,RPMI-8226 myeloma cells,significantly enhanced survival and delayed disease onset
same,"binding to mouse FcγRIV, order",mouse FcγRIV,IgG1 N297Q<IgG4<IgG1
same,toxicity,[3],no compound-related off-target toxicity
